This assay concerns the target T1, cynomolgus SEMA4A expressed on expi293 cells (UniProt ID G7NV79) (cynomolgus, UniProt Q9H3S1 33-761 (human entry)).
T1 construct: Transient transfection in expi293 cells; also called cyno SEMA4A
T1 chain: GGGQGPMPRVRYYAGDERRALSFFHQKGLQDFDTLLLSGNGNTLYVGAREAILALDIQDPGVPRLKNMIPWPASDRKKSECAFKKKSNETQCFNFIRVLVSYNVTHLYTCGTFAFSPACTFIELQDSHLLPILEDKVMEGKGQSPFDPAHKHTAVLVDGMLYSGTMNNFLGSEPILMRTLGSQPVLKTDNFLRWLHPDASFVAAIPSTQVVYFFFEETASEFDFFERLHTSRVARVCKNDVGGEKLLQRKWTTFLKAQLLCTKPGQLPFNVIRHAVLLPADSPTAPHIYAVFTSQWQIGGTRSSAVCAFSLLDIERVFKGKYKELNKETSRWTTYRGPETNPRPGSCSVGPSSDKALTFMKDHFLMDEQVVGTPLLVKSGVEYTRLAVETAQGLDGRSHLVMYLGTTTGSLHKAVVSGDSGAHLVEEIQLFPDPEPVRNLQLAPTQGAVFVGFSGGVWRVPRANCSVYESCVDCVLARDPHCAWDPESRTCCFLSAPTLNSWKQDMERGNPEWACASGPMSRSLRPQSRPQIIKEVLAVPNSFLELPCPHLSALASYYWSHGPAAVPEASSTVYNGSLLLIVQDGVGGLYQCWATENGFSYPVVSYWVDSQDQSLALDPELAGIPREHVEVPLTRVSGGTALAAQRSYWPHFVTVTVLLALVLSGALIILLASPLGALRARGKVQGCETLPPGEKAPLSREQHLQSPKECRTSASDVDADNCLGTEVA
Briefly: Mirrorball direct binding, dilution series on expi293 cells transiently transfected with cynomolgus SEMA4A, anti-human Alexa Fluor 647. An excerpt: Hits from the primary screening were re-formatted into the human Alya IgG1 vector and re-expressed and purified as described in section 4.1. In addition, a single clone was identified that contained an Asparagine deamidation motif (Asn Gly) within its VHCDR2. This potential sequence liability was de-risked by synthesising de novo two clonal variant VH genes (Asn Ala and Gln Gly) and cloning these sequences into the human Alya IgG1 expression vector. To determine the specificity profile of each purified human Alya IgG1, a dilution series was tested for binding to human SEMA4A, mouse SEMA4A, cyno SEMA4A, human SEMA4B and mock transfected cells (transient transfections set up in expi 293 cells.) The five assays employed methods described in section 2.3, using the appropriate cells and substituting the un-purified scFv periplasmic preparation with the recombinant human Alya IgG1 dilution series. Data was analysed as Count x median mean intensity (x FLU).

B1: mouse 5E3 expressed as human IgG1 Alya (antibody, V domains shown)
VH: QVQLQQPGAELVMPGASVKMSCKASGYTFTDYWMHWVKQRPGQGLEWIGAIDTSDSYTSYNQKFKGKATLTVDESSSTAYMQLSSLTSEDSAVYYCARDYGNFYYYAMDYWGQGTSVTVSS
VL: QAVVTQESALTTSPGETVTLTCRSSTGAVTTSNYANWVQEKPDHLFTGLIGGTNNRAPGVPARFSGSLIGDKAALTITGAQTEDEAIYFCALWYSNHWVFGGGTKLTVL
notes: Mouse variable domains on human IgG1 Alya constant (pEU1.22; 239iCys and S442C, EU numbering); purified, unconjugated; also called 5E3 IgG1 Alya
As for B1, the binding result is given as “binds”.

(Values after US20250152729A1 (CANCER RESEARCH TECHNOLOGY, published 2025).)
